This note sets out measurements from publication PMC11629607, “Nanobodies against the myelin enzyme CNPase as tools for structural and functional studies” (Journal of Neurochemistry, 2024).

Data set [1] concerns the target T1, mouse CNPase catalytic domain (mouse, UniProt P16330).
T1 construct: 2′,3′-cyclic nucleotide 3′-phosphodiesterase (CNPase), mouse, catalytic (C-terminal phosphodiesterase) domain; As used in ITC, crystallisation and SEC-SAXS; also called mCNPase catalytic domain; C-terminal phosphodiesterase domain; source: E. coli Rosetta (DE3), pTH27 vector, autoinduction, purified (SEC)
The data set can be described thus: SEC-SAXS; Nb mixed with the CNPase catalytic domain in 1.3-fold molar excess; 20 mM HEPES, 150 mM NaCl, 0.5 mM TCEP, pH 7.5. (In general: Size exclusion chromatography separates by hydrodynamic size, large species first.)

Data set [2] deals with T1, mouse CNPase catalytic domain. The data set can be described thus: ITC; 8.5–11 μM CNPase catalytic domain in the cell, 88–95 μM Nb in the syringe; 20 mM HEPES, 150 mM NaCl, 0.5 mM TCEP, pH 7.5; +25°C; 1:1 binding model; single experiments. (Isothermal titration calorimetry measures the heat released or taken up as one component is titrated into another.)
Data set [3] concerns the target T2, full-length mouse CNPase (Mus musculus (mouse), UniProt P16330).
T2 construct: 2′,3′-cyclic nucleotide 3′-phosphodiesterase (CNPase), mouse, full-length; also called mCNPase; full-length mCNPase; source: E. coli Rosetta (DE3), pTH27 vector, autoinduction, purified (SEC)
Kind of data set: nanoDSF thermal shift (Trp fluorescence); complex prepared by SEC, 2 mg/mL; 20 mM HEPES, 200 mM NaCl, 0.5 mM TCEP, pH 7.5. The following applies: both partners purified. (Differential scanning fluorimetry follows unfolding on heating by fluorescence.)

For data set [4], the target named is T2, full-length mouse CNPase. Kind of data set: DSF thermal shift (SYPRO-Orange); full-length CNPase with Nb; 20 mM HEPES, 150 mM NaCl, 0.5 mM TCEP, pH 7.5; 20–95°C; N = 3. The following applies: both partners purified.
Data set [5] has as its target T3, TOM70-EGFP-CNPase-ALFAtag (Mus musculus (assumed)).
T3 construct: 2′,3′-cyclic nucleotide 3′-phosphodiesterase (CNPase), catalytic domain; also called TOM70‐EGFP‐CNPase (catalytic domain); CNPase anchored to mitochondria; source: COS-7, co-transfected (pcDNA3.1, synthetic gene), in cells; not shown: TOM70 (anchor to the mitochondrial outer membrane), N-terminal, kept; EGFP, internal (between TOM70 and CNPase), kept
T3 chain: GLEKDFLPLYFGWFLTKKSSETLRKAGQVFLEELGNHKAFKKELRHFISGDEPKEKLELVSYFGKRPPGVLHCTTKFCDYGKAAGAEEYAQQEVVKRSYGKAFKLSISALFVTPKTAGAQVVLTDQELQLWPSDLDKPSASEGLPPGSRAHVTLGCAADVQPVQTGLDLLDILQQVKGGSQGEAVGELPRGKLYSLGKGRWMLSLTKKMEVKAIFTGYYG
The data set can be described thus: recruitment to a mitochondria-anchored target (co-localisation by confocal microscopy); COS-7 cells co-transfected with TOM70-EGFP-CNPase and an iNb fused to mRuby3; fixed ca. 16 h after transfection; Pearson's correlation, N = 9 cells. The following applies: partners not purified.

For data set [6], the target named is T2, full-length mouse CNPase. Kind of data set: enzyme inhibition kinetics (Dixon plot); apparent Ki; 2′,3′-cNADP+ hydrolysis by full-length mCNPase, coupled assay; 100 mM Bis-Tris pH 6.0, 10 mM MgCl2; +25°C. The following applies: both partners purified.

Read-outs that look alike come from different tables or passages of the source.

T2 sequence (P16330 whole entry): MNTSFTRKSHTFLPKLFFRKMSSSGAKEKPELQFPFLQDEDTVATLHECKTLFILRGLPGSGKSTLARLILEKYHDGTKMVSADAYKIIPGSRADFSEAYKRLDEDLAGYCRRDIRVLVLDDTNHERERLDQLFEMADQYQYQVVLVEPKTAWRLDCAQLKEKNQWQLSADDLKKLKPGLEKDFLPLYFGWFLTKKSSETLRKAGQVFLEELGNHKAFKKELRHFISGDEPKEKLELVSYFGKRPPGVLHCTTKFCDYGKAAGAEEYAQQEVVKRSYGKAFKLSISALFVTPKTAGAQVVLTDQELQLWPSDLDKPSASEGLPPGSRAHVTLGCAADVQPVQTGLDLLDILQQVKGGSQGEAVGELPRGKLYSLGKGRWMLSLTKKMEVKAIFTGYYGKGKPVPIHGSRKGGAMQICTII

B1: MaBP-8D (NbCNP 8D fusion with the intact His6-MaBP) (VHH)
VHH: EVQLEESGGGLVQPGGSLRLSCAASGFTFSSYVMSWVRQAPGKGLEWVSDINSGGSRTYYTDSVKGRFTISRDNAKNTLYLQMNSLKPEDTAVYYCARDSLLSTRYLHTSERGQGTQVTVSS
In data set [1], B1 registered a stoichiometry N of 1. Further, in data set [2], the Kd turned out to be 0.2 nM, the dH is -11 kcal/mol and the stoichiometry N worked out at 0.837.

B2: anti-CNPase nanobody NbCNP 8D (VHH)
VHH: EVQLEESGGGLVQPGGSLRLSCAASGFTFSSYVMSWVRQAPGKGLEWVSDINSGGSRTYYTDSVKGRFTISRDNAKNTLYLQMNSLKPEDTAVYYCARDSLLSTRYLHTSERGQGTQVTVSS
notes: this construct has a short, extended tail; The batch from the His14-bdSUMO system was used for structural work; also called Nb 8D; source: E. coli SHuffle Express, His14-bdSUMO fusion, purified (Ni2+ beads, eluted by bdSENP1 cleavage)
In turn, B2 returned a stoichiometry N in data set [1] of 1. For the same molecule, in the data set with full-length mouse CNPase [3], the “∆Tm” value was determined as 17.7 °C. For the same molecule, in the data set with full-length mouse CNPase [4], the “∆Tm” value is 18 °C. Further, in data set [2], the Kd stood at 2.5 nM, the dH was -11 kcal/mol and the stoichiometry N came out at 0.8.

B3: iNbCNP 8D fused to mRuby3 (VHH)
VHH: EVQLEESGGGLVQPGGSLRLSCAASGFTFSSYVMSWVRQAPGKGLEWVSDINSGGSRTYYTDSVKGRFTISRDNAKNTLYLQMNSLKPEDTAVYYCARDSLLSTRYLHTSERGQGTQVTVSS
notes: VHH of NbCNP 8D; also called NbCNP‐8D‐mRuby3; source: COS-7, co-transfected, in cells; not shown: mRuby3, C-terminal, kept
Consider B3, for which the binding result in data set [5] was “binds”.

B4: anti-CNPase nanobody NbCNP 8C (VHH)
VHH: EVQLEESGGGLVQAGGSLTLSCAASGFTFDDYAMGWYRQAPGKERVGVSCISRTDGYTYYLDSVKGRFTISTDHAKHTVYLQMNNLKPDDTGLYYCAADADPEYGSRCPDPYYGMDYWGKGILVTVSS
notes: Extra disulphide between CDR2 and CDR3; source: E. coli Shuffle T7, His6-MaBP fusion (pHMGWA), purified (NiNTA, TEV, reverse NiNTA, SEC); not shown: His6, N-terminal, cleaved
B4: the “stoichiometry N” value in data set [1] (both partners purified) came to 1. The “∆Tm” value in the data set with full-length mouse CNPase [4] came to 9.2 °C. Moreover, in data set [2] (both partners purified), the affinity, expressed as Kd, was 16.6 nM; the dH is -7.07 kcal/mol; the “stoichiometry N” value is 0.914.

B5: anti-CNPase nanobody NbCNP 10E (VHH)
VHH: EVQLEESGGGLVQPGGSLRLSCAVSGITLDDFGIGWFRQAPGKEREGVACISPGYEHIYYADSAKGRFTISRDNAKNTVYLQMNNLKPWDTGVYYCAADNDLPDRLWGGSDWSDPSPYDYWGQGTQVTVSS
notes: Purified as described for anti-Arc Nbs (Markusson et al., 2022); source: E. coli, pTH27 vector, purified (SEC, TEV, reverse NiNTA, SEC); not shown: His6, N-terminal, cleaved
With B5, the “∆Tm” value in the data set with full-length mouse CNPase [4] is 4.2 °C. In data set [2] (both partners purified), the Kd worked out at 9.8 nM, the dH is -12.1 kcal/mol and the “stoichiometry N” value amounted to 0.804. Besides, the Ki in the data set with full-length mouse CNPase [6] turned out to be 0.604 nM.

B6: MaBP-10E (His6-maltose-binding protein fusion of NbCNP 10E) (VHH)
VHH: EVQLEESGGGLVQPGGSLRLSCAVSGITLDDFGIGWFRQAPGKEREGVACISPGYEHIYYADSAKGRFTISRDNAKNTVYLQMNNLKPWDTGVYYCAADNDLPDRLWGGSDWSDPSPYDYWGQGTQVTVSS
notes: as the VHH of m9; source: E. coli Shuffle T7, pHMGWA vector, purified; not shown: His6, N-terminal, kept
With B6, in data set [2] (both partners purified), the affinity, expressed as Kd, was 13.4 nM; the dH was -18.1 kcal/mol; the “stoichiometry N” value amounted to 0.836.

B7: iNbCNP 10E fused to mRuby3 (VHH)
VHH: EVQLEESGGGLVQPGGSLRLSCAVSGITLDDFGIGWFRQAPGKEREGVACISPGYEHIYYADSAKGRFTISRDNAKNTVYLQMNNLKPWDTGVYYCAADNDLPDRLWGGSDWSDPSPYDYWGQGTQVTVSS
notes: as the VHH of m9; also called NbCNP 10E-mRuby3; source: COS-7, co-transfected, in cells; not shown: mRuby3, C-terminal, kept
Regarding B7, the binding result in data set [5] is given as “binds”.

B8: anti-CNPase nanobody NbCNP 7E (VHH)
VHH: EVQLEESGGGWVHPGGSLRLSCAASGNVFGVNTMAWYRQAPGKQREQRELVASITDYGTTEYADSVKGRFTISGDNAKATVYLQMNSLKPEDTAVYYCNMDLTVMTATSSLYAYDYWGQGTQVTVSS
notes: source: E. coli Shuffle T7, His6-MaBP fusion (pHMGWA), purified (NiNTA, TEV, reverse NiNTA, SEC); not shown: His6, N-terminal, cleaved
Take B8: the “stoichiometry N” value in data set [1] (both partners purified) worked out at 1. The “∆Tm” value in the data set with full-length mouse CNPase [4] amounted to 2.1 °C. Besides, in data set [2] (both partners purified), binding was characterised by a dissociation constant (Kd) of 83.3 nM, the dH is -14.2 kcal/mol and the “stoichiometry N” value was 0.863.

B9: anti-CNPase nanobody NbCNP 5E (VHH)
VHH: EVQLLESGGGSVQAGGSLRLSCAASGFTVGDYAIGWFRQAPGQQREAVACISTDDGDTYYADSVKGRFTISSDNAKKTAYLEMNNLKPEDTAVYHCAVDGWDSSCTFYSPSYYRDFSDHGAWGQGTQVTVSS
notes: Extra disulphide between CDR2 and CDR3; also called Nb5E; source: E. coli Shuffle T7, His6-MaBP fusion (pHMGWA), purified (NiNTA, TEV, reverse NiNTA, SEC); not shown: His6, N-terminal, cleaved
In turn, B9 came in with a stoichiometry N in data set [1] of 1. The “∆Tm” value in the data set with full-length mouse CNPase [4] was determined as 17 °C. Besides, in data set [2], the Kd was found to be 2.2 nM, the dH is -13.8 kcal/mol and the stoichiometry N turned out to be 0.82.

B10: iNbCNP 5E fused to mRuby3 (VHH)
VHH: EVQLLESGGGSVQAGGSLRLSCAASGFTVGDYAIGWFRQAPGQQREAVACISTDDGDTYYADSVKGRFTISSDNAKKTAYLEMNNLKPEDTAVYHCAVDGWDSSCTFYSPSYYRDFSDHGAWGQGTQVTVSS
notes: as the VHH of m5; also called NbCNP 5E-mRuby3; source: COS-7, co-transfected, in cells; not shown: mRuby3, C-terminal, kept
Take B10: the binding result in data set [5] is listed as “binds”.

What is called stoichiometry N is a count of units in the complex or per binding partner. A word on the Kd: it is the constant that tells how readily two partners part at equilibrium. Low values mean higher affinity, high ones lower affinity.
